According to article PMC9573943, “Contribution of the 12–17 hydrophobic region of islet amyloid polypeptide in self-assembly and cytotoxicity” (Frontiers in Molecular Biosciences, 2022):
“Also recorded” adds a separate entry of the source. Bridge positions count the residues as written; N and C are the ends. Ends that are not written are not given here.

Assays:
[1] = cited from earlier work
From the text: Countless studies have highlighted the key contributions of the 20–29 domain for IAPP self-assembly, often referred to as the amyloidogenic core ([Glenner et al., 1988]). The fact that the sequence from rodent IAPP (rIAPP) includes three β-breaker prolines within the 20-29 region, and is non-amyloidogenic and poorly toxic, further highlights the critical role of this segment ([Moriarty and Raleigh, 1999]; [Tomasello et al., 2014]).

[2] = Solubility and self-assembly of the IAPP12-17 fragment (CD, ThT, ANS, TEM); assay type: physicochemical
Description: (§1) Solutions were prepared by dissolving the peptide at a concentration of 50 μM in 20 mM Tris-HCl, pH 7.4, and were incubated at room temperature without agitation in 1.5 ml Eppendorf microtubes. For IAPP12-17, the lyophilized peptide was dissolved in 20 mM acetate pH 6.5 in the presence of 3% DMSO, or HFIP, at a final concentration of 500 μM and the peptide solution was incubated at 37 °C under constant rotational agitation.
(§2) At the indicating time of incubation, peptide solutions were diluted to 25 μM in presence of 40 μM ThT, or 25 μM 8-anilino-1-naphthalenesulfonic acid (ANS). Fluorescence was measured in 10-mm pathlength microcells using a PTI QuantaMaster spectrofluorometer. For ThT, excitation was set at 440 nm, and the emission spectrum from 450 to 550 nm was recorded. For ANS, the excitation was set at 355 nm, and the emission scan was recorded from 385 to 585 nm.
(§3) After incubation, peptide solutions were diluted in water to 25 μM and incorporated into a 2-mm path length quartz cell. For IAPP12-17, the solution was diluted to 150 μM. Far-UV CD spectra were recorded from 190 to 260 nm using a Jasco J-815 CD spectropolarimeter at 25°C. The wavelength step was set at 0.5 nm with an average time of 10 s per scan at each wavelength. Spectra were background-subtracted with buffer solution. Raw data were converted to mean residue ellipticity (MRE): MRE=Mean residue weight (g/mol)X CD signal (deg)/10 X pathlength (cm) X peptide concentration (g/mL)
(§4) After incubation, peptide solutions were diluted to 10 μM, or 100 μΜ for IAPP12-17, before being applied on glow-discharged carbon films on 300-mesh copper grids. Samples were adsorbed and negatively stained with 1.5% uranyl formate for 45 s. Images were recorded using a FEI Tecnai G2 Spirit Twin microscope operating at 120 kV and equipped with a Gatan Ultrascan scan 4,000 4k × 4k CCD camera system.

INS-1E cells = assay: Cell viability by resazurin reduction; assay type: cell-based, Rat; conditions: freshly dissolved peptide up to 50 μM, 24 h, at least five assays
Description: Rat INS-1E cells were cultured in treated black-wall clear-bottom 96-well plates at a density of 25,000 cell/well in RPMI-1640 medium supplemented with 10% FBS, 2 mM L-glutamine, 100 U/ml penicillin, 100 μg/ml streptomycin, 10 mM HEPES, 1 mM sodium pyruvate and 50 μM β-mercaptoethanol. After 48 h of incubation at 37°C in 5% CO2, cells were treated with 50 μL of peptide freshly dissolved in 20 mM Tris-HCl, pH 7.4. […] Cell viability (%) was calculated from the ratio of the fluorescence of the treated cells to the vehicle-treated cells. Data of at least five assays performed with different peptide lots were averaged and expressed as the mean ± S.D. Statistical analysis was performed using Student’s t test, and statistically significant difference was established at (*) p < 0.05; (**) p < 0.005; (***) p < 0.0005. For Live/Dead viability assay, cells were plated in 12-well plates at density of 250,000 cell/well for 48 h before treatment with 25 μM peptide.

[3] = TFE titration by far-UV CD spectroscopy (helical folding); assay type: physicochemical; conditions: ellipticity at 222 nm, Tris-HCl 20 mM, TFE titration (0 to 30% TFE)
Description: as §3

[4] = Peptide self-assembly under fully quiescent conditions (CD, ThT and ANS fluorescence, TEM, AFM); assay type: physicochemical; conditions: 50 μM peptide; for Assemblies observed by TEM after 48 h incubation / Overall effect of the substitution on amyloid formation, in words: 20 mM Tris-HCl pH 7.4, quiescent; for Assemblies observed by TEM after 48 h incubation: negative stain TEM; for Overall effect of the substitution on amyloid formation, in words: CD, ThT, ANS, TEM, compared with unmodified IAPP
Description: as §1, §2, §3, §4
After incubation, peptide solutions were diluted in 1% acetic acid to a concentration of 7.5 μΜ. […] Images were recorded using Veeco/Bruker multimode AFM instrument using ScanAsyst-air mode with a silicon tip (2–12 nm tip radius, 0.4 N/m force) on a nitride lever. Images were taken at 0.977 Hz and 512 scan/min.

Substance	Cytotoxicity compared with unmodified IAPP, in words (INS-1E cells)	TFE-induced helical folding compared with unmodified IAPP, in words [3]	Assemblies observed by TEM after 48 h incubation [4]	Overall effect of the substitution on amyloid formation, in words [4]	also measured
rIAPP: rodent IAPP, includes three β-breaker prolines within the 20-29 region	–	–	–	–	Amyloidogenicity of rodent IAPP ([1]; ref Moriarty and Raleigh, 1999, Tomasello et al., 2014): non-amyloidogenic
ANFLV [pentapeptide corresponding to the segment 13-17 of IAPP, from a recent study]	–	–	–	–	Fibril formation of the 13-17 pentapeptide ([1]; several days of incubation, ref Rozniakowski et al., 2020): did not form fibrils
LANFLV [IAPP12-17, short C-amidated peptide encompassing the 12–17 segment (LANFLV) of IAPP]	–	–	–	–	ThT and ANS fluorescence of the aggregates ([2]; 500 μM peptide incubated at 37 °C, diluted to 25 μM with 40 μM ThT or 25 μM ANS): ThT and ANS negative; Assemblies observed by TEM after 7 days incubation ([2]; 500 μM peptide, 20 mM acetate pH 6.5, 3% HFIP or 3% DMSO, 37 °C, constant agitation, longer fibrils with HFIP): laterally aligned rod-like fibrils; Secondary structure over incubation time (far-UV CD) ([2]; 500 μM peptide, 20 mM acetate pH 6.5, 3% HFIP, 37 °C, constant rotary agitation): mainly a random coil secondary structure after its solubilization, which evolves into β-sheet after prolonged incubation times; Solubility, in words ([2]; lyophilized/monomerized peptide, needed HFIP or DMSO before dilution in 20 mM acetate buffer pH 6.5): poor solubility
L16G: full-length IAPP with Gly at position Leu16 (KCNTATCATQRLANFGVHSSNNFGAILSSTNVGSNTY; disulfide 2-7; ends not checked; UniProt P10997 34-70, looked up, variant L16G)	significantly reduced IAPP cytotoxicity	destabilizes the propensity of IAPP to adopt an α-helix	Oligomer-like structures	delayed IAPP amyloid formation	–
N14G: full-length IAPP with Asn14 substituted by Gly (KCNTATCATQRLAGFLVHSSNNFGAILSSTNVGSNTY; disulfide 2-7; ends not checked; UniProt P10997 34-70, looked up, variant N14G)	significantly reduced IAPP cytotoxicity; also recorded: poorly toxic for pancreatic cells, even at 50 μM	destabilizes the propensity of IAPP to adopt an α-helix	short, less defined, and twisted	–	Secondary conformation / conformational transition over incubation (far-UV CD), in words ([4]; 20 mM Tris-HCl pH 7.4, room temperature, fully quiescent, up to 7 days): delayed the random coil-to-β-sheet shift
F15G: full-length IAPP with Gly at position Phe15 (KCNTATCATQRLANGLVHSSNNFGAILSSTNVGSNTY; disulfide 2-7; ends not checked; UniProt P10997 34-70, looked up, variant F15G)	significantly reduced IAPP cytotoxicity	destabilizes the propensity of IAPP to adopt an α-helix	no aggregates could be detected	delayed IAPP amyloid formation	Assemblies observed by TEM after 168 h (7 days) incubation ([4]; 20 mM Tris-HCl pH 7.4, room temperature, no agitation, 168 h): some partially dispersed amyloid fibrils
